Source: US20140065670A1

Columns and labels:
[1] = target: CEA (carcinoembryonic antigen) (UniProt P06731); assay: competitive ELISA on CEA, competitor anti-CEA monoclonal antibody; bsctDb as culture supernatant
lysozyme (antigen) = lysozyme (antigen) (UniProt P00698); assay: competitive ELISA on lysozyme, competitor anti-lysozyme Fab antibody fragment; bsctDb as culture supernatant

% Inhibition in CEA Competition ELISA [1]: 100%
% Inhibition in D1.3 Competition ELISA (lysozyme (antigen)): 100%
Substance: D1.3-A5B7 bispecific single chain tetravalent diabody (bispecific antibody)
